From patent US20020009436A1, “Methods and compositions for inhibiting adhesion by microorganisms” (priority 1999, published 2002)

Tests used:
[1] = tested on: S. pyogenes
[2] = tested on: S. epidermidis (clinical isolate); test: Collagen binding assay, S. epidermidis; format: cell-based; conditions: untreated 0.09
Procedure: (§1) Wells were filled with 1 mg/ml soluble collagen overnight at 4° C. Control wells were coated with 1% BSA. The protein solutions were removed and permitted to stand at 37° C. for 1 h. A solution of 2% BSA was added to the wells to block unoccupied sites and prevent non-specific binding of bacteria. After 30 min, BSA was removed and the wells were washed once with distilled water. Finally, the bacterial suspensions (100 μl, OD 1.4) were added to the plates and incubated at 37° C. for 2 h. Unbound bacteria were removed by washing the wells three times with PBS containing 0.01% Tween 20. The wells were dried at 37° C. for 30 min and stained with crystal violet for 15 min. Wells were rinsed with distilled water and dried at 37° C. for 2 h. After adding 100 μl of 95% (v/v) ethanol to each well the plates were then shaken to release the stain and a reading of 550 nm was carried out.

[3] = tested on: Type 1-fimbriated E. coli; test: Flow cytometric adhesion of type 1-fimbriated E. coli to UECs; format: cell-based
Excerpt: Methods for handling polyphenol oxidase and asparaginase and for observing adhesion by microorganisms were generally as described in the previous Examples with variations to adapt these methods to epithelial cells.
The bacteria were labeled intracellularly with the fluorescein dye CFDA-SE. Median fluorescence intensity of the UECs was taken as a measure of the number of bacteria attached to them. In the Figures below, median fluorescence is converted to % adhesion using control conditions (UEC+untreated bacteria) as 100%.

[4] = tested on: S. pyogenes; test: Collagen binding assay, S. pyogenes; format: cell-based
Procedure: as §1

[5] = tested on: type 1-fimbriated and P-fimbriated E. coli; test: Growth inhibition of E. coli; format: cell-based
Procedure: Similar and/or art recognized methods were used to monitor the effects of asparaginase on growth of other microbes including two strains of E. coli, S. pyogenes, Klebsiella pneumoniae, Bacillus cereus, and Proteus vulgaris. Both type 1-fimbriated and P-fimbriated E. coli were incubated with polyphenol oxidase, asparaginase, and ampicillin to test the ability of these agents to inhibit the growth of the bacteria.

[6] = tested on: S. aureus; test: Collagen binding assay, S. aureus; format: cell-based
Procedure: as §1

[7] = tested on: E. coli / urinary epithelial cells (UECs); test: Binding of E. coli to urinary epithelial cells, microscopy (Experiment 1); format: cell-based; conditions: FIG. 4; greater with increasing concentration or duration of incubation
Procedure: Urinary epithelial cells (UEC) were obtained by a method known to those of skill in the art. Briefly, the cells were obtained by centrifugation (5000×g) of 200 ml of clean-catch-collected first morning male urine. Cells were washed 3× in PBS and suspended to a density of 1×10^9 cells/ml in an end-over-end apparatus. After 30 minutes mixtures were collected on polycarbonate filters (pore size=10 μm) and washed with three volumes of cold PBS. Filters were pressed onto glass microscope slides which are then heat-fixed and stained with crystal violet for 2 min. Slides were examined at 1000× with phase-contrast microscopy. For each experimental condition 200 UEC's are examined. Adherent bacteria were quantitated as described in previous Examples.

[8] = tested on: Proteus vulgaris; test: Growth inhibition of Proteus vulgaris; format: cell-based
[9] = tested on: S. sobrinus 6715; test: Disc-diffusion growth assay, S. sobrinus; conditions: 500 μg/ml and 1.0 mg/ml, 18 h
Procedure: Standard disc-diffusion assays were performed with 500 μg/ml and 1.0 mg/ml of polyphenol oxidase. Duplicate series of ten-fold dilutions (to 10^−8) of late exponential phase cultures of S. sobrinus were made in PBS. Eighty μl of each concentration of polyphenol oxidase was pipetted onto 13 mm sterile filter paper discs. The discs were applied to the center of agar plates previously inoculated with lawns of S. sobrinus. Plates were incubated for 18 h and examined visually for any effect of polyphenol oxidase on growth of the bacteria.
Duplicate series of ten-fold dilutions (to 10^−8) of late exponential phase cultures of S. sobrinus were made in PBS. Eighty , μl of each concentration of asparaginase was pipetted onto 13 mm sterile filter paper discs. The discs were applied to the center of agar plates previously inoculated with lawns of S. sobrinus. Plates were incubated for 18 h and examined visually for any effect of asparaginase on growth of the bacteria.

[10] = tested on: P. gingivalis W50 (adhesin) / A. naeslundii T14V (receptor); test: Coaggregation P. gingivalis W50 / A. naeslundii T14V; conditions: P. gingivalis W50 (adhesin) enzyme treated; polyphenol oxidase 90 U/ml, asparaginase 20 U/ml
Procedure: (§2) S. sanguis 10556, A. naeslundii strains 12104 and T14V and E. coli were grown static cultures in Todd-Hewitt broth (BBL Microbiology Systems, Cockeysville, Md.). P. gingivalis W50, A. actinomycetemcomitans and C. ochracea were grown in brain heart infusion broth (BBL). F. nucleatum 22586 and P. intermedia 25611 were grown in modified Schaedler broth (BBL). All oral species except S. sanguis 10556 were incubated at 37° C. as static cultures under an anaerobic atmosphere containing H2, CO2 and N2(10:10:80) with GasPaks (BBL). S. sanguis was incubated at 37° C. as static cultures in 5% CO2.
(§3) Bacteria were harvested in the mid to late exponential growth phase by centrifugation (10,000×g for 10 min at 4° C.). The cells were washed twice in coaggregation buffer (30 mM 3-[N-morpholino]propanesulfonic acid (MOPS), pH 7.0) and adjusted to an optical density of 0.6-0.8 at 540 nm (1-cm path). […]
(§4) Coaggregation was assessed by turbidity changes. Following mixing of the cells for 10 s on a Vortex mixer, absorbance readings were made every 30 min. The percentage of coaggregation was calculated from the following formula: Percent coaggregation=[OD540(A)+OD540(B)−OD540(A+B)]/(OD540(A)+OD540(B)), where A is the control containing cells of one strain, B is the control containing cells of the other strain, and A+B is the reaction mixture containing both cells. […]

[11] = tested on: A. naeslundii ATCC 12104 (adhesin) / Capnocytophaga ochracea (receptor); test: Coaggregation A. naeslundii ATCC 12104 / Capnocytophaga ochracea; conditions: A. naeslundii ATCC 12104 (adhesin) enzyme treated; polyphenol oxidase 90 U/ml, asparaginase 20 U/ml
Procedure: as §2, §3, §4

[12] = tested on: F. nucleatum; test: Hemagglutination assay of periodontopathogens, F. nucleatum; format: cell-based, Fusobacterium nucleatum; parameters: key: + Hemagglutination; − No hemagglutination; conditions: sheep blood, polyphenol oxidase 90 U/ml or asparaginase 20 U/ml, 90 min
Procedure: The hemagglutinations were carried out in 96 microwell (Nunc) plates in which 50 μl of 1% suspension of sheep blood and 50 μl of serially diluted cells suspension in phosphate buffered (10 mM Na2HPO4, 10 mM KH2PO4, 150 mM NaCl, 3 mM KCl) were added. The cells were adjusted at 1.4 OD at 540 nm. All the strains were treated in NaCl-free buffer with polyphenol oxidase (90 U/ml) or asparaginase (20 U/ml) for 90 min at 37° C. before hemagglutination.

[13] = tested on: Klebsiella pneumoniae; test: Growth inhibition of Klebsiella pneumoniae; format: cell-based
[14] = tested on: F. nucleatum (adhesin) / A. actinomycetemcomitans (receptor); test: Coaggregation F. nucleatum / A. actinomycetemcomitans; conditions: polyphenol oxidase 90 U/ml, asparaginase 20 U/ml
Procedure: as §2, §3, §4

[15] = tested on: S. epidermidis (clinical isolate); test: Fibronectin binding assay, S. epidermidis; format: cell-based; conditions: polyphenol oxidase 80 U/ml, asparaginase 20 U/ml, untreated 0.17
Procedure: Wells were filled with human serum fibronectin (50 μg/ml) diluted in carbonate buffer (50 mM Na2CO3—NaHCO3, pH 9.5 overnight). Controls were coated with 1% BSA. The wells were washed three times with PBS and incubated with PBS-Tween (0.5% Tween 20 and 0.05% NaN3) 1 h at 37° C. After attachment, the wells were washed three times with PBS-Tween and allowed to dry. Subsequent assays were as described hereinabove.

[16] = ampicillin 1 mg/ml to 0.015 mg/ml, polyphenol oxidase 1128 to 17.5 units/ml, asparaginase 20 to 0.31 units/ml, data not shown

B1: asparaginase: enzyme that catalyzes hydrolysis of the side chain amide group of asparagine to a carboxyl group; E. coli asparaginase (protein, UniProt P00805 23-348, looked up)
L-asparaginase 2: LPNITILATGGTIAGGGDSATKSNYTVGKVGVENLVNAVPQLKDIANVKGEQVVNIGSQDMNDNVWLTLAKKINTDCDKTDGFVITHGTDTMEETAYFLDLTVKCDKPVVMVGAMRPSTSMSADGPFNLYNAVVTAADKASANRGVLVVMNDTVLDGRDVTKTNTTDVATFKSVNYGPLGYIHNGKIDYQRTPARKHTSDTPFDVSKLNELPKVGIVYNYANASDLPAKALVDAGYDGIVSAGVGNGNLYKSVFDTLATAAKTGTAVVRSSRVPTGATTQDAEVDDAKYGFVASGTLNPQKARVLLQLALTQTKDPQQIQQIFNQY
- inhibition of growth of S. pyogenes [1]: did not significantly inhibit growth
- Absorbance (collagen) [2]: 0.05
- decrease in adhesion to UECs ([3]; asparaginase <2 units/ml): 13%
- decrease in adhesion to UECs ([3]; asparaginase >2 units/ml): 85-90%
- prevention of adhesion to UECs ([3]; asparaginase singly, 10 units/ml): 90%
- reduction in adhesion to UECs ([3]; bacteria first incubated with MUMB 50 mM, then polyphenol oxidase 141 units/ml or asparaginase 10 units/ml): 50%
- increase in adhesion to UECs ([3]; mannopyranoside 50 mM followed by asparaginase 10 units/ml): 40%
- Absorbance (collagen) ([4]; S. pyogenes M4, untreated 0.19): 0.10
- Absorbance (collagen) ([4]; S. pyogenes M24, untreated 0.31): 0.13
- inhibition of growth of two strains of E. coli [5]: did not significantly inhibit growth
- inhibition of growth of P-fimbriated E. coli [5, 16]: Neither polyphenol oxidase (1128 units/ml to 17.5 units/ml) or asparaginase (20 units/ml to 0.31 units/ml) concentrations tested were able to inhibit the growth
- inhibition of growth of type 1-fimbriated E. coli [5, 16]: Neither polyphenol oxidase (1128 units/ml to 17.5 units/ml) or asparaginase (20 units/ml to 0.31 units/ml) concentrations tested were able to inhibit the growth
- Absorbance (collagen) ([6]; S. aureus Cowan, untreated 0.47): 0.30
- Absorbance (collagen) ([6]; S. aureus Wood, untreated 0.40): 0.26
- binding of bacteria to urinary epithelial cells [7]: reduced binding
- inhibition of growth of Proteus vulgaris [8]: did not significantly inhibit growth
- inhibition of growth of S. sobrinus [9]: did not significantly inhibit growth
- Inhibition % of coaggregation [10]: i 31%
- Inhibition % of coaggregation [11]: 25%
- Hemagglutination ([12]; dilution 1/2): +
- Hemagglutination ([12]; dilution 1/8): +
- Hemagglutination ([12]; dilution 1/16): +
- Hemagglutination ([12]; dilution 1/32): +
- Hemagglutination ([12]; dilution 1/64): +
- Hemagglutination ([12]; dilution 1/128): −
- Hemagglutination ([12]; dilution 1/256): −
- Hemagglutination ([12]; dilution 1/512): −
- inhibition of growth of Klebsiella pneumoniae [13]: did not significantly inhibit growth
- Inhibition % of coaggregation ([14]; A. actinomycetemcomitans (receptor) enzyme treated): 40%
- Inhibition % of coaggregation ([14]; F. nucleatum (adhesin) enzyme treated): 23%
- Absorbance (fibronectin) [15]: 0.16
